Measured values reported in patent US9879060B2, “SV82 polypeptide, and cosmetic composition for reducing skin wrinkles and maintaining skin elasticity comprising SV82 polypeptide as active ingredient” (NEXGEN BIOTECHNOLOGIES, INC., priority 2015, dated 2018).

Test system: Human dermal fibroblast adult (HDFa) cells
Experiment: Cell proliferation of HDFa by crystal violet staining
Assay type: cell-based
Settings: 0.02 or 0.2 ppm, 3 days at 37° C., compared to a control (FIG. 5)
Experimental: Human dermal fibroblast adult (HDFa) cells, which had been cultured to evaluate the activity of SV82 polypeptide that has been separated and purified in Example 2, were treated with SV82 polypeptide having a concentration of 0, 0.02 ppm or 0.2 ppm, and then incubated for 3 days at a temperature of 37° C. Thereafter, the cells were stained by crystal violate staining to identify whether the cells had proliferated.

B1: SV82 polypeptide (protein)
chain: MKYLLPTAAAGLLLLAAQPAMARATCAGQDQPCKETCDCCGERGECVCGGPCICRQGYFWIAWYKLANCKKLEHHHHHH
modifications: SV82
- cell proliferation of HDFa (crystal violet staining): the more HDFa cells proliferate
